B1: CPEB3 Ribozyme (parent)
chain: UAACAGGGGGCCACAGCAGAAGCGUUCACGUCGCAGCCCCUGUCAGAUUCUGGUGAAUCUGCGAAUUCUGCUGUAUAUCUC

Variants of: B1
Assay: self-cleavage, relative activity (ratio to wild type); higher = more cleavage; in vitro, sequencing
Summary of the method: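 Relative activity compares each variant's cleaved/total read fraction with that of the unmutated ribozyme. To get these fractions, barcoded CPEB3 ribozyme libraries from rounds of error-prone PCR were transcribed with T7 RNA polymerase for 5 hours at 37°C and then given 15 min of DNase I treatment before EDTA was added. The RNAs were reverse transcribed with template switching and sequenced on Illumina, and DNA sequencing linked barcodes to variants. A minimum of 5 reads applied, and three batches were averaged.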
UAACAGGGGGCCGCAGCAGAAGCGUUCACGUCGCAGCCCCUGUCAGAUUCUGGUGAAUCUGCGAAUUCUGCCGUAUAUCUC gave a self-cleavage of 0.8. For UAACAGGGGGCCGCAGCAGAAGCGUUCACGUCGCAGCCCCUGUCAGAUUCUGGUGAAUCUGCGAAUUCUGCGGUAUAUCUC, the self-cleavage was 0.46. Work on UAACAGGGGGCCGCAGCAGAAGCGUUCACGUCGCAGCCCCUGUCAGAUUCUGGUGAAUCUGCGAAUUCUGCUGAAUAUCUC yielded a self-cleavage of 1.28. In the case of UAACAGGGGGCCGCAGCAGAAGCGUUCACGUCGCAGCCCCUGUCAGAUUCUGGUGAAUCUGCGAAUUCUGCUGCAUAUCUC, the self-cleavage is reported as 0.72. Variant UAACAGGGGGCCGCAGCAGAAGCGUUCACGUCGCAGCCCCUGUCAGAUUCUGGUGAAUCUGCGAAUUCUGCUGGAUAUCUC has a self-cleavage of 1.37. UAACAGGGGGCCGCAGCAGAAGCGUUCACGUCGCAGCCCCUGUCAGAUUCUGGUGAAUCUGCGAAUUCUGCUGUAAAUCUC gave a self-cleavage of 0.99. In the case of UAACAGGGGGCCGCAGCAGAAGCGUUCACGUCGCAGCCCCUGUCAGAUUCUGGUGAAUCUGCGAAUUCUGCUGUACAUCUC, the self-cleavage is reported as 0.94. For UAACAGGGGGCCGCAGCAGAAGCGUUCACGUCGCAGCCCCUGUCAGAUUCUGGUGAAUCUGCGAAUUCUGCUGUAGAUCUC, the self-cleavage was 1.08. UAACAGGGGGCCGCAGCAGAAGCGUUCACGUCGCAGCCCCUGUCAGAUUCUGGUGAAUCUGCGAAUUCUGCUGUAUAACUC gave a self-cleavage of 1.01. With UAACAGGGGGCCGCAGCAGAAGCGUUCACGUCGCAGCCCCUGUCAGAUUCUGGUGAAUCUGCGAAUUCUGCUGUAUACCUC the self-cleavage was 0.94. Variant UAACAGGGGGCCGCAGCAGAAGCGUUCACGUCGCAGCCCCUGUCAGAUUCUGGUGAAUCUGCGAAUUCUGCUGUAUAUCAC has a self-cleavage of 1.07. Variant UAACAGGGGGCCGCAGCAGAAGCGUUCACGUCGCAGCCCCUGUCAGAUUCUGGUGAAUCUGCGAAUUCUGCUGUAUAUCCC has a self-cleavage of 1.03. With UAACAGGGGGCCGCAGCAGAAGCGUUCACGUCGCAGCCCCUGUCAGAUUCUGGUGAAUCUGCGAAUUCUGCUGUAUAUCGC the self-cleavage was 0.75. UAACAGGGGGCCUCAGCAGAAGCGUUCACGUCGCAGCCCCUGUCAGAUUCUGGUGAAUCUGCGAAUUCUGCUGUAUAUCUC showed a self-cleavage of 1.17. In the case of UAACAGGGGGCCUCCGCAGAAGCGUUCACGUCGCAGCCCCUGUCAGAUUCUGGUGAAUCUGCGAAUUCUGCUGUAUAUCUC, the self-cleavage is reported as 0.88. UAACAGGGGGCCUCGGCAGAAGCGUUCACGUCGCAGCCCCUGUCAGAUUCUGGUGAAUCUGCGAAUUCUGCUGUAUAUCUC showed a self-cleavage of 0.69. Work on UAACAGGGGGCCUCUGCAGAAGCGUUCACGUCGCAGCCCCUGUCAGAUUCUGGUGAAUCUGCGAAUUCUGCUGUAUAUCUC yielded a self-cleavage of 1.05. With UAACAGGGGGCCUCAGCCGAAGCGUUCACGUCGCAGCCCCUGUCAGAUUCUGGUGAAUCUGCGAAUUCUGCUGUAUAUCUC the self-cleavage was 0.42. UAACAGGGGGCCUCAGCGGAAGCGUUCACGUCGCAGCCCCUGUCAGAUUCUGGUGAAUCUGCGAAUUCUGCUGUAUAUCUC gave a self-cleavage of 0.87. For UAACAGGGGGCCUCAGCUGAAGCGUUCACGUCGCAGCCCCUGUCAGAUUCUGGUGAAUCUGCGAAUUCUGCUGUAUAUCUC, the self-cleavage was 0.38. Variant UAACAGGGGGCCUCAGCAGGAGCGUUCACGUCGCAGCCCCUGUCAGAUUCUGGUGAAUCUGCGAAUUCUGCUGUAUAUCUC has a self-cleavage of 0.93. Work on UAACAGGGGGCCUCAGCAGUAGCGUUCACGUCGCAGCCCCUGUCAGAUUCUGGUGAAUCUGCGAAUUCUGCUGUAUAUCUC yielded a self-cleavage of 0.54. For UAACAGGGGGCCUCAGCAGACGCGUUCACGUCGCAGCCCCUGUCAGAUUCUGGUGAAUCUGCGAAUUCUGCUGUAUAUCUC, the self-cleavage was 0.37. In the case of UAACAGGGGGCCUCAGCAGAGGCGUUCACGUCGCAGCCCCUGUCAGAUUCUGGUGAAUCUGCGAAUUCUGCUGUAUAUCUC, the self-cleavage is reported as 0.48. UAACAGGGGGCCUCAGCAGAUGCGUUCACGUCGCAGCCCCUGUCAGAUUCUGGUGAAUCUGCGAAUUCUGCUGUAUAUCUC showed a self-cleavage of 0.35. Variant UAACAGGGGGCCUCAGCAGAAGCGUUCCCGUCGCAGCCCCUGUCAGAUUCUGGUGAAUCUGCGAAUUCUGCUGUAUAUCUC has a self-cleavage of 0.64. Work on UAACAGGGGGCCUCAGCAGAAGCGUUCGCGUCGCAGCCCCUGUCAGAUUCUGGUGAAUCUGCGAAUUCUGCUGUAUAUCUC yielded a self-cleavage of 0.72. Work on UAACAGGGGGCCUCAGCAGAAGCGUUCUCGUCGCAGCCCCUGUCAGAUUCUGGUGAAUCUGCGAAUUCUGCUGUAUAUCUC yielded a self-cleavage of 1.01. In the case of UAACAGGGGGCCUCAGCAGAAGCGUUCACGUCGCCGCCCCUGUCAGAUUCUGGUGAAUCUGCGAAUUCUGCUGUAUAUCUC, the self-cleavage is reported as 0.69. UAACAGGGGGCCUCAGCAGAAGCGUUCACGUCGCGGCCCCUGUCAGAUUCUGGUGAAUCUGCGAAUUCUGCUGUAUAUCUC gave a self-cleavage of 1.3. For UAACAGGGGGCCUCAGCAGAAGCGUUCACGUCGCUGCCCCUGUCAGAUUCUGGUGAAUCUGCGAAUUCUGCUGUAUAUCUC, the self-cleavage was 0.75. UAACAGGGGGCCUCAGCAGAAGCGUUCACGUCGCAGCCCCUGUCCGAUUCUGGUGAAUCUGCGAAUUCUGCUGUAUAUCUC showed a self-cleavage of 0.38. With UAACAGGGGGCCUCAGCAGAAGCGUUCACGUCGCAGCCCCUGUCGGAUUCUGGUGAAUCUGCGAAUUCUGCUGUAUAUCUC the self-cleavage was 1.1. Variant UAACAGGGGGCCUCAGCAGAAGCGUUCACGUCGCAGCCCCUGUCUGAUUCUGGUGAAUCUGCGAAUUCUGCUGUAUAUCUC has a self-cleavage of 0.69. Work on UAACAGGGGGCCUCAGCAGAAGCGUUCACGUCGCAGCCCCUGUCAGCUUCUGGUGAAUCUGCGAAUUCUGCUGUAUAUCUC yielded a self-cleavage of 0.76. UAACAGGGGGCCUCAGCAGAAGCGUUCACGUCGCAGCCCCUGUCAGGUUCUGGUGAAUCUGCGAAUUCUGCUGUAUAUCUC showed a self-cleavage of 1.01. For UAACAGGGGGCCUCAGCAGAAGCGUUCACGUCGCAGCCCCUGUCAGUUUCUGGUGAAUCUGCGAAUUCUGCUGUAUAUCUC, the self-cleavage was 0.92. Variant UAACAGGGGGCCUCAGCAGAAGCGUUCACGUCGCAGCCCCUGUCAGAUUCUGGUGGAUCUGCGAAUUCUGCUGUAUAUCUC has a self-cleavage of 1.07. UAACAGGGGGCCUCAGCAGAAGCGUUCACGUCGCAGCCCCUGUCAGAUUCUGGUGUAUCUGCGAAUUCUGCUGUAUAUCUC gave a self-cleavage of 0.93. With UAACAGGGGGCCUCAGCAGAAGCGUUCACGUCGCAGCCCCUGUCAGAUUCUGGUGACUCUGCGAAUUCUGCUGUAUAUCUC the self-cleavage was 0.7. In the case of UAACAGGGGGCCUCAGCAGAAGCGUUCACGUCGCAGCCCCUGUCAGAUUCUGGUGAGUCUGCGAAUUCUGCUGUAUAUCUC, the self-cleavage is reported as 1.07. For UAACAGGGGGCCUCAGCAGAAGCGUUCACGUCGCAGCCCCUGUCAGAUUCUGGUGAUUCUGCGAAUUCUGCUGUAUAUCUC, the self-cleavage was 1.04. For UAACAGGGGGCCUCAGCAGAAGCGUUCACGUCGCAGCCCCUGUCAGAUUCUGGUGAAUCUGCGCAUUCUGCUGUAUAUCUC, the self-cleavage was 0.27. Variant UAACAGGGGGCCUCAGCAGAAGCGUUCACGUCGCAGCCCCUGUCAGAUUCUGGUGAAUCUGCGGAUUCUGCUGUAUAUCUC has a self-cleavage of 1.09. UAACAGGGGGCCUCAGCAGAAGCGUUCACGUCGCAGCCCCUGUCAGAUUCUGGUGAAUCUGCGUAUUCUGCUGUAUAUCUC gave a self-cleavage of 0.47. In the case of UAACAGGGGGCCUCAGCAGAAGCGUUCACGUCGCAGCCCCUGUCAGAUUCUGGUGAAUCUGCGACUUCUGCUGUAUAUCUC, the self-cleavage is reported as 0.17. In the case of UAACAGGGGGCCUCAGCAGAAGCGUUCACGUCGCAGCCCCUGUCAGAUUCUGGUGAAUCUGCGAGUUCUGCUGUAUAUCUC, the self-cleavage is reported as 0.61. UAACAGGGGGCCUCAGCAGAAGCGUUCACGUCGCAGCCCCUGUCAGAUUCUGGUGAAUCUGCGAAUUCUGCUGUGUAUCUC gave a self-cleavage of 1.25. With UAACAGGGGGCCUCAGCAGAAGCGUUCACGUCGCAGCCCCUGUCAGAUUCUGGUGAAUCUGCGAAUUCUGCUGUUUAUCUC the self-cleavage was 1.28. UAACAGGGGGCCUCAGCAGAAGCGUUCACGUCGCAGCCCCUGUCAGAUUCUGGUGAAUCUGCGAAUUCUGCUGUAUGUCUC gave a self-cleavage of 1.03. With UAACAGGGGGCCUCAGCAGAAGCGUUCACGUCGCAGCCCCUGUCAGAUUCUGGUGAAUCUGCGAAUUCUGCUGUAUUUCUC the self-cleavage was 1.22. For UAACAGGGGGCCUUAGCAGAAGCGUUCACGUCGCAGCCCCUGUCAGAUUCUGGUGAAUCUGCGAAUUCUGCUGUAUAUCUC, the self-cleavage was 1.26. Work on UAACAGGGGGCCUCAGGAGAAGCGUUCACGUCGCAGCCCCUGUCAGAUUCUGGUGAAUCUGCGAAUUCUGCUGUAUAUCUC yielded a self-cleavage of 0.48. UAACAGGGGGCCUCAGUAGAAGCGUUCACGUCGCAGCCCCUGUCAGAUUCUGGUGAAUCUGCGAAUUCUGCUGUAUAUCUC gave a self-cleavage of 0.92. Work on UAACAGGGGGCCUCAGCAGAAGAGUUCACGUCGCAGCCCCUGUCAGAUUCUGGUGAAUCUGCGAAUUCUGCUGUAUAUCUC yielded a self-cleavage of 0.33. Variant UAACAGGGGGCCUCAGCAGAAGGGUUCACGUCGCAGCCCCUGUCAGAUUCUGGUGAAUCUGCGAAUUCUGCUGUAUAUCUC has a self-cleavage of 0.17. UAACAGGGGGCCUCAGCAGAAGUGUUCACGUCGCAGCCCCUGUCAGAUUCUGGUGAAUCUGCGAAUUCUGCUGUAUAUCUC gave a self-cleavage of 0.15. UAACAGGGGGCCUCAGCAGAAGCGUUAACGUCGCAGCCCCUGUCAGAUUCUGGUGAAUCUGCGAAUUCUGCUGUAUAUCUC gave a self-cleavage of 0.17. In the case of UAACAGGGGGCCUCAGCAGAAGCGUUUACGUCGCAGCCCCUGUCAGAUUCUGGUGAAUCUGCGAAUUCUGCUGUAUAUCUC, the self-cleavage is reported as 0.24. Variant UAACAGGGGGCCUCAGCAGAAGCGUUCAUGUCGCAGCCCCUGUCAGAUUCUGGUGAAUCUGCGAAUUCUGCUGUAUAUCUC has a self-cleavage of 0.58. Work on UAACAGGGGGCCUCAGCAGAAGCGUUCACGUAGCAGCCCCUGUCAGAUUCUGGUGAAUCUGCGAAUUCUGCUGUAUAUCUC yielded a self-cleavage of 0.2. In the case of UAACAGGGGGCCUCAGCAGAAGCGUUCACGUGGCAGCCCCUGUCAGAUUCUGGUGAAUCUGCGAAUUCUGCUGUAUAUCUC, the self-cleavage is reported as 0.45. In the case of UAACAGGGGGCCUCAGCAGAAGCGUUCACGUUGCAGCCCCUGUCAGAUUCUGGUGAAUCUGCGAAUUCUGCUGUAUAUCUC, the self-cleavage is reported as 0.25. UAACAGGGGGCCUCAGCAGAAGCGUUCACGUCGUAGCCCCUGUCAGAUUCUGGUGAAUCUGCGAAUUCUGCUGUAUAUCUC showed a self-cleavage of 0.43. With UAACAGGGGGCCUCAGCAGAAGCGUUCACGUCGCAGUCCCUGUCAGAUUCUGGUGAAUCUGCGAAUUCUGCUGUAUAUCUC the self-cleavage was 1.09. Work on UAACAGGGGGCCUCAGCAGAAGCGUUCACGUCGCAGCACCUGUCAGAUUCUGGUGAAUCUGCGAAUUCUGCUGUAUAUCUC yielded a self-cleavage of 0.12. For UAACAGGGGGCCUCAGCAGAAGCGUUCACGUCGCAGCGCCUGUCAGAUUCUGGUGAAUCUGCGAAUUCUGCUGUAUAUCUC, the self-cleavage was 0.41. In the case of UAACAGGGGGCCUCAGCAGAAGCGUUCACGUCGCAGCUCCUGUCAGAUUCUGGUGAAUCUGCGAAUUCUGCUGUAUAUCUC, the self-cleavage is reported as 0.89.

Source: the RNAGym collection of RNA variant scans (doi:10.1093/nar/gkz1192)
